From the supplement of paper PMC7125110
± gives the standard error. For part of these data: This sample holds only a part of the variants without activity.

B1: glmS ribozyme (parent)
chain: AUAAAAGCGCCAGAACUACAGAAAUGUAGUUGACGAGGAGGAGGUUUAUCGAAUUUUCGGCGGAUGCCUCCAAA

How the values were obtained:
Details in all cases: with glucosamine-6-phosphate
[1] = variants of: B1; experiment: kcat; higher = faster cleavage; RNA array
Summary of the method: (§1)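 Over ~14 h at 37 °C, tiles were imaged as glucosamine-6-phosphate (40 μM to 10 mM) in HEPES/KCl/Mg(OAc)2 buffer flowed across sequenced MiSeq chips. The chips carried barcoded ribozyme variants transcribed in situ by E. coli RNA polymerase and tracked with a hybridised Cy3 probe. After normalisation to baseline and to non-cleaving reference variants, one- or two-exponential decay fits of per-tile medians gave kobs. kcat and KM followed from weighted Michaelis–Menten fits across concentrations.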

[2] = variants of: B1; experiment: KM; higher = weaker cofactor use; RNA array
Summary of the method: as §1

[3] = variants of: B1; experiment: self-cleavage kobs at 40 uM GlcN6P; higher = faster cleavage; RNA array
Summary of the method: as §1

[4] = variants of: B1; experiment: self-cleavage kobs at 160 uM GlcN6P; higher = faster cleavage; RNA array
Summary of the method: as §1

[5] = variants of: B1; experiment: self-cleavage kobs at 640 uM GlcN6P; higher = faster cleavage; RNA array
Summary of the method: as §1

[6] = variants of: B1; experiment: self-cleavage kobs at 2500 uM GlcN6P; higher = faster cleavage; RNA array
Summary of the method: as §1

[7] = variants of: B1; experiment: self-cleavage kobs at 10000 uM GlcN6P; higher = faster cleavage; RNA array
Summary of the method: as §1

Variant | kcat [1] | KM [2] | self-cleavage kobs at 40 uM GlcN6P [3] | self-cleavage kobs at 160 uM GlcN6P [4] | self-cleavage kobs at 640 uM GlcN6P [5] | self-cleavage kobs at 2500 uM GlcN6P [6] | self-cleavage kobs at 10000 uM GlcN6P [7]
G13U A39G | 0.00264 ± 0.00039 s⁻¹ | 2070 ± 520 µM | 5.19e-05 ± 1.1e-05 s⁻¹ | 0.000147 ± 3.4e-05 s⁻¹ | 0.000749 ± 0.00012 s⁻¹ | 0.00177 ± 0.0003 s⁻¹ | 0.00208 ± 0.00023 s⁻¹
A48U U54A | 0.000682 ± 2.5e-05 s⁻¹ | 3130 ± 210 µM |  | 3.6e-05 ± 1.3e-05 s⁻¹ | 0.000113 ± 2.8e-05 s⁻¹ | 0.00029 ± 7.8e-05 s⁻¹ | 0.000524 ± 7.9e-05 s⁻¹
G32U U55A | 0.00193 ± 0.00061 s⁻¹ | 9310 ± 4500 µM | 2.84e-05 ± 1e-05 s⁻¹ | 4.22e-05 ± 1.4e-05 s⁻¹ | 0.000132 ± 2e-05 s⁻¹ | 0.000332 ± 5.9e-05 s⁻¹ | 0.00102 ± 8.2e-05 s⁻¹
A48C U55A | 0.000411 ± 0.0001 s⁻¹ | 2110 ± 920 µM |  |  | 8.73e-05 ± 1.8e-05 s⁻¹ | 0.000276 ± 4.6e-05 s⁻¹ | 0.000272 ± 8.7e-05 s⁻¹
A6C C67A | 3.57e-05 ± 2.8e-07 s⁻¹ | 1260 ± 54 µM |  |  |  |  | 3.18e-05 ± 9.1e-06 s⁻¹
G13A A39G C61G C70A | < 1e-05 s⁻¹ |  |  |  |  |  | 
G66A C67A | 0.00809 ± 0.0018 s⁻¹ | 1620 ± 470 µM | 0.000216 ± 3.4e-05 s⁻¹ | 0.000708 ± 0.00012 s⁻¹ | 0.00222 ± 0.0004 s⁻¹ | 0.00373 ± 0.00093 s⁻¹ | 0.00873 ± 0.0016 s⁻¹
A53G C70G | 0.000195 ± 1.8e-05 s⁻¹ |  | 0.000132 ± 2.3e-05 s⁻¹ | 0.000309 ± 9.5e-05 s⁻¹ | 0.000196 ± 2.9e-05 s⁻¹ | 0.000173 ± 2.5e-05 s⁻¹ | 0.000215 ± 3.6e-05 s⁻¹
U31A C68A | 2.86e-05 ± 9.3e-06 s⁻¹ |  | < 1e-05 s⁻¹ |  |  | 4.06e-05 ± 1.6e-05 s⁻¹ | 
G13A A52G | 6.74e-05 ± 2.2e-06 s⁻¹ | 1040 ± 140 µM |  |  |  | 4.85e-05 ± 1.2e-05 s⁻¹ | 6.07e-05 ± 1.1e-05 s⁻¹
U56A G60A | 2.59e-05 ± 2.9e-06 s⁻¹ |  |  |  |  |  | 2.33e-05 ± 1.2e-05 s⁻¹
U30A C67G | 0.000166 ± 1.4e-05 s⁻¹ | 1650 ± 330 µM |  |  | 5.03e-05 ± 5.9e-06 s⁻¹ | 9.16e-05 ± 8.4e-06 s⁻¹ | 0.00015 ± 1.3e-05 s⁻¹
U49G G66U | 6.16e-05 ± 2.8e-07 s⁻¹ | 5640 ± 59 µM |  |  |  |  | 3.94e-05 ± 1.3e-05 s⁻¹
U54C C70G | 0.000186 ± 3.5e-05 s⁻¹ |  | 5.08e-05 ± 1.5e-05 s⁻¹ | 0.000109 ± 3.8e-05 s⁻¹ | 0.000175 ± 2.3e-05 s⁻¹ | 0.000139 ± 2.6e-05 s⁻¹ | 0.000325 ± 6.2e-05 s⁻¹
A14C A15G | 0.00631 ± 0.0025 s⁻¹ | 6250 ± 2900 µM | 5.61e-05 ± 7.9e-06 s⁻¹ | 0.000127 ± 1.8e-05 s⁻¹ | 0.000597 ± 6.6e-05 s⁻¹ | 0.00192 ± 0.00022 s⁻¹ | 0.00369 ± 0.00064 s⁻¹
